Laboratory results published in publication PMC10330821.

Molecular target: native bovine chromogranin B (bCHGB) (bovine)
Experiment: SEC; bCHGB in detergents, re-extracted from vesicles and fractionated by gel filtration; elution position compared with recombinant mCHGB

stoichiometry N: 2
Substance: native bovine chromogranin B (bCHGB) (natural protein)
